Measurements as given in paper PMC8761896 (2021).

B1: VRC01gl Fab with comL ('VQ' insertion at 103aL and 103bL, L104VL, E105DL) (Fab, V domains shown)
VH: not shown
VL: EIVLTQSPATLSLSPGERATLSCRASQSVSSYLAWYQQKPGQAPRLLIYDASNRATGIPARFSGSGSGTDFTLTISSLEPEDFAVYYCQQYEFFGQGTKVQVDI
B2: germline reverted VRC01 (VRC01gl) Fab (Fab, V domains shown)
VH: not shown
VL: EIVLTQSPATLSLSPGERATLSCRASQSVSSYLAWYQQKPGQAPRLLIYDASNRATGIPARFSGSGSGTDFTLTISSLEPEDFAVYYCQQYEFFGQGTKLEIK

Experiments:
eOD-GT6 [1] = assay: SPR
eOD-GT6 [2] = assay: SPR; remark: listed apart in the source

Row | Binder | Kd (eOD-GT6 [1]) [nM] | koff (eOD-GT6 [2]) [s⁻¹]
1 | B1 | 16.4 | 0.000642
2 | B2 | 16.2 | 0.00073
